Reference: publication PMC9482650, “Quantitative fragmentomics allow affinity mapping of interactomes” (Nature Communications, 2022)

What was measured:
Test in all cases: holdup assay
Set-up in all cases: key: below the threshold = too weak to quantify, mostly under pKd 3.1 to 4
[1] = molecular target: T1, APBA2_1, Q99767
T1 sequence (Q99767 563-664, limits assumed, looked up): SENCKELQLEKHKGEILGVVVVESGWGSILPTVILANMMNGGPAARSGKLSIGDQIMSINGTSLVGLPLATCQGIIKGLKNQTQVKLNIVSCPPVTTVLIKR

[2] = molecular target: T2, APBA3_1, O96018
T2 sequence (O96018 389-490, limits assumed, looked up): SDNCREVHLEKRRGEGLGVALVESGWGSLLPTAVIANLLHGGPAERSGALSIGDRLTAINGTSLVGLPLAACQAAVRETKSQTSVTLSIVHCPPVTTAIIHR

[3] = molecular target: T3, ARHGEF11, O15085
T3 sequence (O15085 42-136, limits assumed, looked up): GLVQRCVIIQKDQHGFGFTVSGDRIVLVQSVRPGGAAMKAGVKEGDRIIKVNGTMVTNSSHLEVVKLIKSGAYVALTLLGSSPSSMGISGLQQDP

[4] = molecular target: T4, CARD11, Q9BXL7
T4 sequence (Q9BXL7 662-765, limits assumed, looked up): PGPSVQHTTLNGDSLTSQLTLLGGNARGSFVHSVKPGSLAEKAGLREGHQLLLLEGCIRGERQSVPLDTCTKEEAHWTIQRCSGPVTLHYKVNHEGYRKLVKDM

[5] = molecular target: CASK, O14936
[6] = molecular target: T5, FRMPD1, Q5SYB0
T5 sequence (Q5SYB0 52-145, limits assumed, looked up): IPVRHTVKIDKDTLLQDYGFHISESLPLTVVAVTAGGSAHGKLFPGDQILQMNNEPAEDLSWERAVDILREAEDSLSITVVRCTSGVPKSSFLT

[7] = molecular target: FRMPD2_1, Q68DX3
[8] = molecular target: GRIP2_4, Q9C0E4
[9] = molecular target: GRIP2_7, Q9C0E4
[10] = molecular target: T6, HTRA3, P83110
T6 sequence (P83110 354-453, limits assumed, looked up): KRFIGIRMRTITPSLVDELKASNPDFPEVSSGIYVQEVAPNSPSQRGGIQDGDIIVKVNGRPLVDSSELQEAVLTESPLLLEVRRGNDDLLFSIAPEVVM

[11] = molecular target: MAGI1_1, Q96QZ7
[12] = molecular target: MAGI2_6, Q86UL8
[13] = molecular target: T7, MPP6, Q9NZW5
T7 sequence (Q9NZW5 125-219, limits assumed, looked up): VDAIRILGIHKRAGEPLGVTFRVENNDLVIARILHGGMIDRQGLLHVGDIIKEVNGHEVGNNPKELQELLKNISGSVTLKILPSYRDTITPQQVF

[14] = molecular target: T8, MPP7, Q5T2T1
T8 sequence (Q5T2T1 134-230, limits assumed, looked up): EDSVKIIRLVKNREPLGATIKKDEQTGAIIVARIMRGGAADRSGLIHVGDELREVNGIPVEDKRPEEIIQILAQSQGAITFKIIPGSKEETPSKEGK

[15] = molecular target: T9, NHERF3_4, Q5T2W1
T9 sequence (Q5T2W1 373-468, limits assumed, looked up): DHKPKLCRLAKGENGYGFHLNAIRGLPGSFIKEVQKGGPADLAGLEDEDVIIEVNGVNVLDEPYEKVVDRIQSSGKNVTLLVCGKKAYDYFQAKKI

[16] = molecular target: T10, PDZD7_3, Q9H5P4
T10 sequence (Q9H5P4 857-944, limits assumed, looked up): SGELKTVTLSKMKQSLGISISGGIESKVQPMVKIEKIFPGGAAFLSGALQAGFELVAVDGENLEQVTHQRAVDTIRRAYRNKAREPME

[17] = molecular target: T11, RHPN1, Q8TCX5
T11 sequence (Q8TCX5 508-602, limits assumed, looked up): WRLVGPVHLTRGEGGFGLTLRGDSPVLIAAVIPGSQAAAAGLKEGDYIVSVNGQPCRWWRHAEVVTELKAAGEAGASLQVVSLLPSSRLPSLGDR

[18] = molecular target: T12, SNTA1, Q13424
T12 sequence (Q13424 82-180, limits assumed, looked up): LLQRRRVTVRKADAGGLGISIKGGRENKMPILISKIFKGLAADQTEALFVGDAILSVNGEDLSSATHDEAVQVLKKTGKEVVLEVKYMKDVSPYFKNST

[19] = molecular target: T13, SNTG1, Q9NSN8
T13 sequence (Q9NSN8 52-150, limits assumed, looked up): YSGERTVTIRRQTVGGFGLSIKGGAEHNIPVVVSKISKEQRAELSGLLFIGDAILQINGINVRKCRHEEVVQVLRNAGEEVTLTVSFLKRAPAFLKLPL

[20] = molecular target: TJP1_2, Q07157
[21] = molecular target: T14, TJP3_3, O95049
T14 sequence (O95049 375-456, limits assumed, looked up): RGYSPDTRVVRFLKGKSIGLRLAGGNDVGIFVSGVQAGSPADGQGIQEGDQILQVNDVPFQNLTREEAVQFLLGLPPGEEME

[22] = molecular target: T15, TX1BP3, O14907
T15 sequence (O14907 10-122, limits assumed, looked up): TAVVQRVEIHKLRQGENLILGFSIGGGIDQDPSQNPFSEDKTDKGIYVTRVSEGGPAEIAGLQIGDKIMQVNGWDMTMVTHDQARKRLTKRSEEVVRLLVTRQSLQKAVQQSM

[23] = plain residues with an end cap or a label only (N-terminal biotin on a linker: ado-ado)
[24] = plain residues with an end cap or a label only (N-terminal biotin on a linker: ahx)

Chain of CASK, O14936 (O14936 487-570): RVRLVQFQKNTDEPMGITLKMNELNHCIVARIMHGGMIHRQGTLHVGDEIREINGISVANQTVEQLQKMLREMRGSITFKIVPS
Chain of GRIP2_4, Q9C0E4 (Q9C0E4 446-548): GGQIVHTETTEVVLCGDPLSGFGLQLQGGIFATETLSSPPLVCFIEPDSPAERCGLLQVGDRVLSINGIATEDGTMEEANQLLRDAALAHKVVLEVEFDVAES
Chain of GRIP2_7, Q9C0E4 (Q9C0E4 934-1023): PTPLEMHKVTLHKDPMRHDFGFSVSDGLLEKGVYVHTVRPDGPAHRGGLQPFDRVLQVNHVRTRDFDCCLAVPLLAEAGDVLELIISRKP
Chain of TJP1_2, Q07157 (Q07157 181-274): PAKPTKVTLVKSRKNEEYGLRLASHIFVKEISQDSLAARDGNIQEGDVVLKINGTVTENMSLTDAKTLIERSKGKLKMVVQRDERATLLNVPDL
Chain of MAGI2_6, Q86UL8 (Q86UL8 1141-1229): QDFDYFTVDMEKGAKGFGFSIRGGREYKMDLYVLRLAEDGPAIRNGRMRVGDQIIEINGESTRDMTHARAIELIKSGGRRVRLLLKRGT
Chain of MAGI1_1, Q96QZ7 (Q96QZ7 1-106): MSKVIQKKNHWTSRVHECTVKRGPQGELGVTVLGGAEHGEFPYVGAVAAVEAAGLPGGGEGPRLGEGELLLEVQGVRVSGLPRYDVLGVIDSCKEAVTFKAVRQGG
Chain of FRMPD2_1, Q68DX3 (Q68DX3 770-861): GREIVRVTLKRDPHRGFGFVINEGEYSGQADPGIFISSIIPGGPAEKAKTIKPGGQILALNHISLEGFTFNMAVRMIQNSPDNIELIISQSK

B1: KIRREL1, Q96J84 (peptide)
chain: RFQQRMQTHV
In the case of B1, the pKd [1, 23] is reported as “below the threshold”, the pKd [2, 23] is reported as “below the threshold” and the pKd [3, 23] is reported as 4.19. For the same binder, the pKd [4, 23] was “below the threshold”, the pKd [5, 23] was “below the threshold” and the pKd [6, 23] was “below the threshold”. The pKd [7, 23] was “below the threshold”, the pKd [8, 23] was “below the threshold” and the pKd [9, 23] was 3.52. For the same binder, the pKd [10, 23] was “below the threshold”, the pKd [11, 23] was “below the threshold” and the pKd [12, 23] was “below the threshold”. The pKd [13, 23] was “below the threshold”, the pKd [14, 23] was “below the threshold” and the pKd [15, 23] was “below the threshold”. For the same binder, the pKd [16, 23] was 4.5, the pKd [17, 23] was 3.91 and the pKd [18, 23] was “below the threshold”. For the same binder, the pKd [19, 23] was “below the threshold”, the pKd [20, 23] was “below the threshold” and the pKd [21, 23] was “below the threshold”. The pKd [22, 23] was 4.85.

B2: CCRL2, O00421 (peptide)
chain: REEPDHSTEV
With B2 the pKd [1, 23] was “below the threshold”, the pKd [2, 23] was “below the threshold” and the pKd [3, 23] was 4.77. For the same binder, the pKd [4, 23] was “below the threshold”, the pKd [5, 23] was “below the threshold” and the pKd [6, 23] was “below the threshold”. For the same binder, the pKd [7, 23] was “below the threshold”, the pKd [8, 23] was “below the threshold” and the pKd [9, 23] was “below the threshold”. The pKd [10, 23] was 3.48, the pKd [11, 23] was “below the threshold” and the pKd [12, 23] was 4.71. For the same binder, the pKd [13, 23] was “below the threshold”, the pKd [14, 23] was “below the threshold” and the pKd [15, 23] was “below the threshold”. The pKd [16, 23] was 4.31, the pKd [17, 23] was 3.83 and the pKd [18, 23] was 4.45. For the same binder, the pKd [19, 23] was 4.36, the pKd [20, 23] was “below the threshold” and the pKd [21, 23] was “below the threshold”. The pKd [22, 23] was 3.49.

B3: CLDN18, P56856 (peptide)
chain: QSYPSKHDYV
For B3, the pKd [1, 23] was 3.57, the pKd [2, 23] was “below the threshold” and the pKd [3, 23] was 3.81. The pKd [4, 23] was “below the threshold”, the pKd [5, 23] was “below the threshold” and the pKd [6, 23] was “below the threshold”. The pKd [7, 23] was “below the threshold”, the pKd [8, 23] was “below the threshold” and the pKd [9, 23] was “below the threshold”. The pKd [10, 23] was 4.19, the pKd [11, 23] was “below the threshold” and the pKd [12, 23] was 3.82. The pKd [13, 23] was “below the threshold”, the pKd [14, 23] was “below the threshold” and the pKd [15, 23] was 3.48. For the same binder, the pKd [16, 23] was 4.08, the pKd [17, 23] was “below the threshold” and the pKd [18, 23] was 3.58. The pKd [19, 23] was “below the threshold”, the pKd [20, 23] was 3.61 and the pKd [21, 23] was 4.02. The pKd [22, 23] was 4.17.

B4: SRC, P12931 (peptide)
chain: EPQYQPGENL
In the case of B4, the pKd [1, 23] is reported as “below the threshold”, the pKd [2, 23] is reported as “below the threshold” and the pKd [3, 23] is reported as “below the threshold”. For the same binder, the pKd [4, 23] was “below the threshold”, the pKd [5, 23] was “below the threshold” and the pKd [6, 23] was “below the threshold”. The pKd [7, 23] was “below the threshold”, the pKd [8, 23] was “below the threshold” and the pKd [9, 23] was “below the threshold”. For the same binder, the pKd [10, 23] was “below the threshold”, the pKd [11, 23] was “below the threshold” and the pKd [12, 23] was 3.84. For the same binder, the pKd [13, 23] was “below the threshold”, the pKd [14, 23] was “below the threshold” and the pKd [15, 23] was “below the threshold”. The pKd [16, 23] was “below the threshold”, the pKd [17, 23] was “below the threshold” and the pKd [18, 23] was “below the threshold”. For the same binder, the pKd [19, 23] was “below the threshold”, the pKd [20, 23] was “below the threshold” and the pKd [21, 23] was “below the threshold”. The pKd [22, 23] was “below the threshold”.

B5: HTR2A, P28223 (peptide)
chain: DGVNEKVSCV
For B5, the pKd [1, 23] was “below the threshold”, the pKd [2, 23] was “below the threshold” and the pKd [3, 23] was 4.18. For the same binder, the pKd [4, 23] was “below the threshold”, the pKd [5, 23] was “below the threshold” and the pKd [6, 23] was “below the threshold”. For the same binder, the pKd [7, 23] was “below the threshold”, the pKd [8, 23] was “below the threshold” and the pKd [9, 23] was “below the threshold”. The pKd [10, 23] was 3.94, the pKd [11, 23] was “below the threshold” and the pKd [12, 23] was 4.47. The pKd [13, 23] was “below the threshold”, the pKd [14, 23] was “below the threshold” and the pKd [15, 23] was “below the threshold”. It also gave a pKd [16, 23] of 4.72, a pKd [17, 23] of 4.66 and a pKd [18, 23] of 4.66. For the same binder, the pKd [19, 23] was 4.33, the pKd [20, 23] was “below the threshold” and the pKd [21, 23] was “below the threshold”. The pKd [22, 23] was 3.61.

B6: TIAM1, Q13009 (peptide)
chain: APSRKLNTEI
With B6 the pKd [1, 24] was “below the threshold”, the pKd [2, 24] was “below the threshold” and the pKd [3, 24] was “below the threshold”. The pKd [4, 24] was “below the threshold”, the pKd [5, 24] was “below the threshold” and the pKd [6, 24] was “below the threshold”. The pKd [7, 24] was “below the threshold”, the pKd [8, 24] was “below the threshold” and the pKd [9, 24] was “below the threshold”. The pKd [10, 24] was “below the threshold”, the pKd [11, 24] was “below the threshold” and the pKd [12, 24] was “below the threshold”. For the same binder, the pKd [13, 24] was “below the threshold”, the pKd [14, 24] was “below the threshold” and the pKd [15, 24] was “below the threshold”. For the same binder, the pKd [16, 24] was 4.08, the pKd [17, 24] was 3.88 and the pKd [18, 24] was “below the threshold”. For the same binder, the pKd [19, 24] was “below the threshold”, the pKd [20, 24] was “below the threshold” and the pKd [21, 24] was “below the threshold”. The pKd [22, 24] was “below the threshold”.
